What is called Kd is a measure of binding affinity in units of concentration. Lower therefore signals higher affinity.

The experiment addresses complement component C3b, site-specifically biotinylated at Cys-1010 (human) (UniProt P01024). The experiment is described as follows: SPR. A general note: SPR reads the build-up and loss of mass on a sensor chip optically.
For the substance “Native FB purified from human serum (natural protein)”, the Ka-1 (two-state model, first step, association) was 168000 M⁻¹ s⁻¹; the Kd came to 109 nM; the Kd-1 (two-state model, first step, dissociation) worked out at 0.0702 s⁻¹; the Kd-2 (two-state model, second step, reverse) was determined as 0.00249 s⁻¹.

The substance “recombinant FB with D279G and K350N (from UniProt P00751 26-764) (natural protein)” registered a Ka-1 (two-state model, first step, association) of 225000 M⁻¹ s⁻¹; a Kd-1 (two-state model, first step, dissociation) of 0.0526 s⁻¹; a Kd-2 (two-state model, second step, reverse) of 0.0045 s⁻¹.

The substance “recombinant FB with D279G mutation (from UniProt P00751 26-764) (natural protein)” displayed a Ka-1 (two-state model, first step, association) of 304000 M⁻¹ s⁻¹; a Kd-1 (two-state model, first step, dissociation) of 0.0376 s⁻¹; a Kd-2 (two-state model, second step, reverse) of 0.00941 s⁻¹.

As for “recombinant FB with D279G, K350N, and S699A (from UniProt P00751 26-764) (natural protein)”, the Ka-1 (two-state model, first step, association) was 256000 M⁻¹ s⁻¹; the Kd worked out at 104 nM; the Kd-1 (two-state model, first step, dissociation) came to 0.0469 s⁻¹; the Kd-2 (two-state model, second step, reverse) was determined as 0.00836 s⁻¹.

“recombinant FB with F286L mutation (from UniProt P00751 26-764) (natural protein)” gave a Ka-1 (two-state model, first step, association) of 551000 M⁻¹ s⁻¹; a Ka-2 (two-state model, second step, forward) of 0.0289 s⁻¹; a Kd-1 (two-state model, first step, dissociation) of 0.0229 s⁻¹; a Kd-2 (two-state model, second step, reverse) of 0.0083 s⁻¹.

The substance “recombinant FB with K323E mutation (from UniProt P00751 26-764) (natural protein)” gave a Ka-1 (two-state model, first step, association) of 280000 M⁻¹ s⁻¹; a Kd of 159 nM; a Kd-1 (two-state model, first step, dissociation) of 0.0807 s⁻¹; a Kd-2 (two-state model, second step, reverse) of 0.00723 s⁻¹.

“recombinant FB with K350N mutation (from UniProt P00751 26-764) (natural protein)” registered a Ka-1 (two-state model, first step, association) of 131000 M⁻¹ s⁻¹; a Kd of 322 nM; a Kd-1 (two-state model, first step, dissociation) of 0.0995 s⁻¹; a Kd-2 (two-state model, second step, reverse) of 0.00419 s⁻¹.

For “recombinant wild-type FB (from UniProt P00751 26-764) (natural protein)”, the Ka-1 (two-state model, first step, association) is 325000 M⁻¹ s⁻¹; the Kd-1 (two-state model, first step, dissociation) turned out to be 0.0796 s⁻¹; the Kd-2 (two-state model, second step, reverse) amounted to 0.0138 s⁻¹.

The record behind these values is publication PMC11573645.
